According to publication PMC6391921:

Target: full-length H7 HA trimer (influenza A virus (H7))
Test: BLI

CT149 Fab
Kd: 3.7 nM
koff: 0.0031 s⁻¹
kon: 360000 M⁻¹ s⁻¹
